How the values were obtained:
[1] = target: Ferric Uptake Regulator from Acidithiobacillus ferrooxidans (AfFur), wild type, N-terminal His-tag (Acidithiobacillus ferrooxidans ATCC 23270); test: SDS-PAGE and western blot; purified His-tagged AfFur on SDS-PAGE (Coomassie, Figure S2) and western blot with anti-6x His tag antibody (Figure S3); dimer
[2] = target: Ferric Uptake Regulator from Acidithiobacillus ferrooxidans (AfFur), wild type, N-terminal His-tag (Acidithiobacillus ferrooxidans ATCC 23270); test: SEC; size-exclusion chromatography of AfFur, data not shown; dimer in solution
AfFur H93A = target: T1, AfFur H93A (Acidithiobacillus ferrooxidans ATCC …, UniProt B7J425 1-158, H93A); test: EMSA; 0.1 mM Mn2+, 5 mM Mg2+; 10 mM Tris pH 7.5, 50 mM KCl, 5 mM MgCl2, 0.1 mM MnCl2, 1 mM DTT, 2.5% glycerol, 50 ng/uL poly(dI-dC), 0.05% NP-40; 20 fmol probe, 2.9-3.9 ug protein in 20 uL; details: protein: recombinant; tags: N-terminal His6 (pLATE51); chain copies: 2; label: 5' biotin
T1 sequence: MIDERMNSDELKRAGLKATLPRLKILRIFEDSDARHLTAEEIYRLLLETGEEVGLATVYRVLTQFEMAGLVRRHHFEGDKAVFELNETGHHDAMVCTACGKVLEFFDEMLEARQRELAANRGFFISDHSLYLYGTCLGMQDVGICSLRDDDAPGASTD

AfFur E84A = target: T2, AfFur E84A (Acidithiobacillus ferrooxidans ATCC …, UniProt B7J425 1-158, E84A); test: EMSA; 0.1 mM Mn2+, 5 mM Mg2+; shift persists with cold probe; 10 mM Tris pH 7.5, 50 mM KCl, 5 mM MgCl2, 0.1 mM MnCl2, 1 mM DTT, 2.5% glycerol, 50 ng/uL poly(dI-dC), 0.05% NP-40; 20 fmol probe, 2.9-3.9 ug protein in 20 uL; details: protein: recombinant; tags: N-terminal His6 (pLATE51); chain copies: 2; label: 5' biotin
T2 sequence: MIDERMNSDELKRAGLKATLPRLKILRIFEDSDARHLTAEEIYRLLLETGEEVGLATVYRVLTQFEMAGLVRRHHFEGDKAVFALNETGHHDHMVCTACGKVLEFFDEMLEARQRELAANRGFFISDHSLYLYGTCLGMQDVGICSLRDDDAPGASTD

AfFur H91K = target: T3, AfFur H91K (Acidithiobacillus ferrooxidans ATCC …, UniProt B7J425 1-158, H91K); test: as above; details: protein: recombinant; tags: N-terminal His6 (pLATE51); chain copies: 2; label: 5' biotin
T3 sequence: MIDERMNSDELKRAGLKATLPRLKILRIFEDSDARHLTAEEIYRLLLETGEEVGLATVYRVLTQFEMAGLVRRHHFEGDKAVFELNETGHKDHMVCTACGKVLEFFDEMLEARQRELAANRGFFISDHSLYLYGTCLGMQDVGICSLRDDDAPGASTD

AfFur WT = target: T4, AfFur WT (Acidithiobacillus ferrooxidans ATCC …, UniProt B7J425 1-158); test: EMSA; holo, 0.1 mM Mn2+, 5 mM Mg2+; shift lost with 200-fold cold probe; 10 mM Tris pH 7.5, 50 mM KCl, 5 mM MgCl2, 0.1 mM MnCl2, 1 mM DTT, 2.5% glycerol, 50 ng/uL poly(dI-dC), 0.05% NP-40; 20 fmol probe, 2.9-3.9 ug protein in 20 uL; details: protein: recombinant; tags: N-terminal His6 (pLATE51); chain copies: 2; label: 5' biotin
T4 sequence: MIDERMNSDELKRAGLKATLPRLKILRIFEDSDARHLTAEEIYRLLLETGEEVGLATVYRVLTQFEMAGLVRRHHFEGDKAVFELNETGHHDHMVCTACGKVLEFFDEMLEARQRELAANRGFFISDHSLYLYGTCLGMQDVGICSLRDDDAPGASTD

AfFur C145A = target: T5, AfFur C145A (Acidithiobacillus ferrooxidans ATCC …, UniProt B7J425 1-158, C145A); test: EMSA; 0.1 mM Mn2+, 5 mM Mg2+; also no shift + EDTA; 10 mM Tris pH 7.5, 50 mM KCl, 5 mM MgCl2, 0.1 mM MnCl2, 1 mM DTT, 2.5% glycerol, 50 ng/uL poly(dI-dC), 0.05% NP-40; 20 fmol probe, 2.9-3.9 ug protein in 20 uL; details: protein: recombinant; tags: N-terminal His6 (pLATE51); chain copies: 2; label: 5' biotin
T5 sequence: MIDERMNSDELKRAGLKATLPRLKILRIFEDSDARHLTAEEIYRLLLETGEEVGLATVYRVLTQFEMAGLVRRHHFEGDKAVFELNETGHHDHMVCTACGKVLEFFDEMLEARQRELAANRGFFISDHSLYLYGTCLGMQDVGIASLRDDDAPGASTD

AfFur C99A = target: T6, AfFur C99A (Acidithiobacillus ferrooxidans ATCC …, UniProt B7J425 1-158, C99A); test: as above; details: protein: recombinant; tags: N-terminal His6 (pLATE51); chain copies: 2; label: 5' biotin
T6 sequence: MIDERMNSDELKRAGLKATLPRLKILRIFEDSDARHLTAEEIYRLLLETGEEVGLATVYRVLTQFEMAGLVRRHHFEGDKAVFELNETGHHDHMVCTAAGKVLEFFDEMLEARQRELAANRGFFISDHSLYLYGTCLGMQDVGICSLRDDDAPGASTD

AfFur C145W = target: T7, AfFur C145W (Acidithiobacillus ferrooxidans ATCC …, UniProt B7J425 1-158, C145W); test: as above; details: protein: recombinant; tags: N-terminal His6 (pLATE51); chain copies: 2; label: 5' biotin
T7 sequence: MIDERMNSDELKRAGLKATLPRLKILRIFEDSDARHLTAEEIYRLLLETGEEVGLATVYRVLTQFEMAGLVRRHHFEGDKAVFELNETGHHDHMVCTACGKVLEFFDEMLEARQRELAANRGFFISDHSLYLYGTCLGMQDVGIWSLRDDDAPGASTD

AfFur C136A = target: T8, AfFur C136A (Acidithiobacillus ferrooxidans ATCC …, UniProt B7J425 1-158, C136A); test: as above; details: protein: recombinant; tags: N-terminal His6 (pLATE51); chain copies: 2; label: 5' biotin
T8 sequence: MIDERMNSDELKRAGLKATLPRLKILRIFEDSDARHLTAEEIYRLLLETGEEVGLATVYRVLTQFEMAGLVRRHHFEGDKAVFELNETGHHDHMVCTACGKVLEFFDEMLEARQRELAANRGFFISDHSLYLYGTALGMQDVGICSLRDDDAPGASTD

AfFur C96A = target: T9, AfFur C96A (Acidithiobacillus ferrooxidans ATCC …, UniProt B7J425 1-158, C96A); test: as above; details: protein: recombinant; tags: N-terminal His6 (pLATE51); chain copies: 2; label: 5' biotin
T9 sequence: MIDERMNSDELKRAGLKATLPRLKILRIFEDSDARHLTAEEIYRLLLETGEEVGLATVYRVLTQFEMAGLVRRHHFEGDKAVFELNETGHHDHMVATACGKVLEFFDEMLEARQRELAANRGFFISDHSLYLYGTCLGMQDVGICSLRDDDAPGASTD

AfFur E104K = target: T10, AfFur E104K (Acidithiobacillus ferrooxidans ATCC …, UniProt B7J425 1-158, E104K); test: EMSA; 0.1 mM Mn2+, 5 mM Mg2+; lost with cold probe; 10 mM Tris pH 7.5, 50 mM KCl, 5 mM MgCl2, 0.1 mM MnCl2, 1 mM DTT, 2.5% glycerol, 50 ng/uL poly(dI-dC), 0.05% NP-40; 20 fmol probe, 2.9-3.9 ug protein in 20 uL; details: protein: recombinant; tags: N-terminal His6 (pLATE51); chain copies: 2; label: 5' biotin
T10 sequence: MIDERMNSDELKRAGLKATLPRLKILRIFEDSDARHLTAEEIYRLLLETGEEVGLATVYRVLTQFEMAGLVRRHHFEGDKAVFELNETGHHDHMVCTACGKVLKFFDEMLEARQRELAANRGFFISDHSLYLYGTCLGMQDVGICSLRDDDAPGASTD

AfFur H91D = target: T11, AfFur H91D (Acidithiobacillus ferrooxidans ATCC …, UniProt B7J425 1-158, H91D); test: as above; details: protein: recombinant; tags: N-terminal His6 (pLATE51); chain copies: 2; label: 5' biotin
T11 sequence: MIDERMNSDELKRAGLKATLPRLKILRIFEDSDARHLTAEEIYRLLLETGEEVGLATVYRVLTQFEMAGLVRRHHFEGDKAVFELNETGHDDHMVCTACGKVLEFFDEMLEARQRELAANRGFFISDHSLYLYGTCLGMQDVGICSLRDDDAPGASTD

Question: How did the stoichiometry N [1] turn out when “Ferric Uptake Regulator from Acidithiobacillus ferrooxidans (AfFur), wild type, N-terminal His-tag (natural protein)” was run?
Answer: Its stoichiometry N is 2.

Question: What about the stoichiometry N [2] of the same molecule?
Answer: The stoichiometry N was 2.

B1: Bio-MntH-Fur-box (dsDNA)
DNA 1: GGCATCAATAAACGGGAATCATTCTCGTCTACC
DNA 2: GGTAGACGAGAATGATTCCCGTTTATTGATGCC
Question: Does B1 bind (AfFur H93A)?
Answer: Result: no binding

Question: Does B1 bind (AfFur E84A)?
Answer: Result: binds

Question: Does B1 bind (AfFur H91K)?
Answer: Result: binds

Question: Does B1 bind (AfFur WT)?
Answer: Result: binds

Question: Does B1 bind (AfFur C145A)?
Answer: Result: no binding

Question: Does B1 bind (AfFur C99A)?
Answer: Result: no binding

Question: Does B1 bind (AfFur C145W)?
Answer: Result: no binding

Question: Does B1 bind (AfFur C136A)?
Answer: Result: no binding

Question: Does B1 bind (AfFur C96A)?
Answer: Result: no binding

Question: Does B1 bind (AfFur E104K)?
Answer: Result: binds

Question: Does B1 bind (AfFur H91D)?
Answer: Result: binds
